Experimental data reported in patent publication US20130041017A1, “SIRNA-BASED THERAPY OF FIBRODYPLASIA OSSIFICANS PROGRESSIVA (FOP)” (The Trustees of the University of Pennsylvania, published 2013).

Biological target: T1, ACVR1 Arg206His mutant (R206H; c.617G>A), mutated Activin A type I receptor protein (human)
T1 chain: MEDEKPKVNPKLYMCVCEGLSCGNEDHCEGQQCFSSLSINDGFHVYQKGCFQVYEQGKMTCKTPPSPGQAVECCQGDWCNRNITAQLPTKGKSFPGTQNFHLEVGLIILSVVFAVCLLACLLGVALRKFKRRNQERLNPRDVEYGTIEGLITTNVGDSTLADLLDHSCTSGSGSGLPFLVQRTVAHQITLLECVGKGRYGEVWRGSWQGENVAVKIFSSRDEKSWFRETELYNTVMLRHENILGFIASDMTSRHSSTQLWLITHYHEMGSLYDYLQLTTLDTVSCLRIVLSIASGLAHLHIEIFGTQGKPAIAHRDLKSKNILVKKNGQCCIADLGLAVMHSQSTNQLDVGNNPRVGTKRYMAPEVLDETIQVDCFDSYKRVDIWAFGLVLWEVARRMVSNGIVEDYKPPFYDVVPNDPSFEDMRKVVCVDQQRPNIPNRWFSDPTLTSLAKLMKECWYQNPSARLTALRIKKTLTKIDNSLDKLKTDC
Test: cell-based or functional assay

phosphorylated Smad1/5/8 (pSmad1/5/8) by immunoblotting: ~2 fold
B1: Human recombinant BMP4 (ligand)
chain: SPKHHSQRARKKNKNCRRHSLYVDFSDVGWNDWIVAPPGYQAFYCHGDCPFPLADHLNSTNHAIVQTLVNSVNSSIPKACCVPTELSAISMLYLDEYDKVVLKNYQEMVVEGCGCR
